Measured values published in patent US20170190753A1 (LABORATOIRE FRANCAIS DU FRACTIONNEMENT ET DES …, published 2017).

B1: pCEP4-1NT10-15CT20 (other)
chain: EDCNELPPRRNTEILTGSWSDQTYPEGTQAIYKCRPGYRSLGNVIMVCRKGEWVALNPLRKCQKRPCGHPGDTPFGTFTLTGGNVFEYGVKAVYTCNEGYQLLGEINYRECDTDGWTNDIPICEVVKCLPVTAPENGKIVSSAMEPDREYHFGQAVRFVCNSGYKIEGDEEMHCSDDGFWSKEKPKCVEISCKSPDVINGSPISQKIIYKENERFQYKCNMGYEYSERGDAVCTESGWRPLPSCEEKSCDNPYIPNGDYSPLRIKHRTGDEITYQCRNGFYPATRGNTAKCTSTGWIPAPRCTLKPCDYPDIKHGGLYHENMRRPYFPVAVGKYYSYYCDEHFETPSGSYWDHIHCTQDGWSPAVPCLRKCYFPYLENGYNQNHGRKFVQGKSIDVACHPGYALPKAQTTVTCMENGWSPTPRCIRVKTCSKSSIDIENGFISESQYTYALKEKAKYQCKLGYVTADGETSGSITCGKDGWSAQPTCIKSCDIPVFMNARTKNDFTWFKLNDTLDYECHDGYESNTGSTTGSIVCGYNGWSDLPICYERECELPKIDVHLVPDRKKDQYKVGEVLKFSCKPGFTIVGPNSVQCYHFGLSPDLPICKEQVQSGASGCSQPPQIEHGTINSSRSSQESYAHGTKLSYTCEGGFRISEENETTCYMGKWSSPPQCEGLPCKSPPEISHGVVAHMSDSYQYGEEVTYKCFEGFGIDGPAIAKCLGEKWSHPPSCIKTDCLSLPSFENAIPMGEKKDVYKAGEQVTYTCATYYKMDGASNVTCINSRWTGRPTCRDTSCVNPPTVQNAYIVSRQMSKYPSGERVRYQCRSPYEMFGDEEVMCLNGNWTEPPQCKDSTGKCGPPPPIDNGDITSFPLSVYAPASSVEYQCQNLYQLEGNKRITCRNGQWSEPPKCLHPCVISREIMENYNIALRWTAKQKLYSRTGESVEFVCKRGYRLSSRSHTLRTTCWDGKLEYPTCAKRGGSGHHHHHH
B2: pCEP4-1NT8-10CT20 (other)
chain: EDCNELPPRRNTEILTGSWSDQTYPEGTQAIYKCRPGYRSLGNVIMVCRKGEWVALNPLRKCQKRPCGHPGDTPFGTFTLTGGNVFEYGVKAVYTCNEGYQLLGEINYRECDTDGWTNDIPICEVVKCLPVTAPENGKIVSSAMEPDREYHFGQAVRFVCNSGYKIEGDEEMHCSDDGFWSKEKPKCVEISCKSPDVINGSPISQKIIYKENERFQYKCNMGYEYSERGDAVCTESGWRPLPSCEEKSCDNPYIPNGDYSPLRIKHRTGDEITYQCRNGFYPATRGNTAKCTSTGWIPAPRCTLKPCDYPDIKHGGLYHENMRRPYFPVAVGKYYSYYCDEHFETPSGSYWDHIHCTQDGWSPAVPCLRKCYFPYLENGYNQNYGRKFVQGKSIDVACHPGYALPKAQTTVTCMENGWSPTPRCIRVKTCSKSSIDIENGFISESQYTYALKEKAKYQCKLGYVTADGETSGSITCGKDGWSAQPTCIKSGASGCELPKIDVHLVPDRKKDQYKVGEVLKFSCKPGFTIVGPNSVQCYHFGLSPDLPICKEQVQSCGPPPELLNGNVKEKTKEEYGHSEVVEYYCNPRFLMKGPNKIQCVDGEWTTLPVCIVEESTCGDIPELEHGWAQLSSPPYYYGDSVEFNCSESFTMIGHRSITCIHGVWTQLPQCVAIDKLKKCKSSNLIILEEHLKNKKEFDHNSNIRYRCRGKEGWIHTVCINGRWDPEVNCSMAQIQLCPPPPQIPNSHNMTTTLNYRDGEKVSVLCQENYLIQEGEEITCKDGRWQSIPLCVEKIPCSQPPQIEHGTINSSRSSQESYAHGTKLSYTCEGGFRISEENETTCYMGKWSSPPQCEGLPCKSPPEISHGVVAHMSDSYQYGEEVTYKCFEGFGIDGPAIAKCLGEKWSHPPSCIKTDCLSLPSFENAIPMGEKKDVYKAGEQVTYTCATYYKMDGASNVTCINSRWTGRPTCRDTSCVNPPTVQNAYIVSRQMSKYPSGERVRYQCRSPYEMFGDEEVMCLNGNWTEPPQCKDSTGKCGPPPPIDNGDITSFPLSVYAPASSVEYQCQNLYQLEGNKRITCRNGQWSEPPKCLHPCVISREIMENYNIALRWTAKQKLYSRTGESVEFVCKRGYRLSSRSHTLRTTCWDGKLEYPTCAKRGGSGHHHHHH
B3: pCEP4-1NT11-14CT20 (other)
chain: EDCNELPPRRNTEILTGSWSDQTYPEGTQAIYKCRPGYRSLGNVIMVCRKGEWVALNPLRKCQKRPCGHPGDTPFGTFTLTGGNVFEYGVKAVYTCNEGYQLLGEINYRECDTDGWTNDIPICEVVKCLPVTAPENGKIVSSAMEPDREYHFGQAVRFVCNSGYKIEGDEEMHCSDDGFWSKEKPKCVEISCKSPDVINGSPISQKIIYKENERFQYKCNMGYEYSERGDAVCTESGWRPLPSCEEKSCDNPYIPNGDYSPLRIKHRTGDEITYQCRNGFYPATRGNTAKCTSTGWIPAPRCTLKPCDYPDIKHGGLYHENMRRPYFPVAVGKYYSYYCDEHFETPSGSYWDHIHCTQDGWSPAVPCLRKCYFPYLENGYNQNHGRKFVQGKSIDVACHPGYALPKAQTTVTCMENGWSPTPRCIRVKTCSKSSIDIENGFISESQYTYALKEKAKYQCKLGYVTADGETSGSITCGKDGWSAQPTCIKSCDIPVFMNARTKNDFTWFKLNDTLDYECHDGYESNTGSTTGSIVCGYNGWSDLPICYERECELPKIDVHLVPDRKKDQYKVGEVLKFSCKPGFTIVGPNSVQCYHFGLSPDLPICKEQVQSCGPPPELLNGNVKEKTKEEYGHSEVVEYYCNPRFLMKGPNKIQCVDGEWTTLPVCIVEESTGASGCPPPPQIPNSHNMTTTLNYRDGEKVSVLCQENYLIQEGEEITCKDGRWQSIPLCVEKIPCSQPPQIEHGTINSSRSSQESYAHGTKLSYTCEGGFRISEENETTCYMGKWSSPPQCEGLPCKSPPEISHGVVAHMSDSYQYGEEVTYKCFEGFGIDGPAIAKCLGEKWSHPPSCIKTDCLSLPSFENAIPMGEKKDVYKAGEQVTYTCATYYKMDGASNVTCINSRWTGRPTCRDTSCVNPPTVQNAYIVSRQMSKYPSGERVRYQCRSPYEMFGDEEVMCLNGNWTEPPQCKDSTGKCGPPPPIDNGDITSFPLSVYAPASSVEYQCQNLYQLEGNKRITCRNGQWSEPPKCLHPCVISREIMENYNIALRWTAKQKLYSRTGESVEFVCKRGYRLSSRSHTLRTTCWDGKLEYPTCAKRGGSGHHHHHH
B4: pCEP4-1NT7-13CT20 (other)
chain: EDCNELPPRRNTEILTGSWSDQTYPEGTQAIYKCRPGYRSLGNVIMVCRKGEWVALNPLRKCQKRPCGHPGDTPFGTFTLTGGNVFEYGVKAVYTCNEGYQLLGEINYRECDTDGWTNDIPICEVVKCLPVTAPENGKIVSSAMEPDREYHFGQAVRFVCNSGYKIEGDEEMHCSDDGFWSKEKPKCVEISCKSPDVINGSPISQKIIYKENERFQYKCNMGYEYSERGDAVCTESGWRPLPSCEEKSCDNPYIPNGDYSPLRIKHRTGDEITYQCRNGFYPATRGNTAKCTSTGWIPAPRCTLKPCDYPDIKHGGLYHENMRRPYFPVAVGKYYSYYCDEHFETPSGSYWDHIHCTQDGWSPAVPCLRKCYFPYLENGYNQNYGRKFVQGKSIDVACHPGYALPKAQTTVTCMENGWSPTPRCIRVKTGASGCKSSNLIILEEHLKNKKEFDHNSNIRYRCRGKEGWIHTVCINGRWDPEVNCSMAQIQLCPPPPQIPNSHNMTTTLNYRDGEKVSVLCQENYLIQEGEEITCKDGRWQSIPLCVEKIPCSQPPQIEHGTINSSRSSQESYAHGTKLSYTCEGGFRISEENETTCYMGKWSSPPQCEGLPCKSPPEISHGVVAHMSDSYQYGEEVTYKCFEGFGIDGPAIAKCLGEKWSHPPSCIKTDCLSLPSFENAIPMGEKKDVYKAGEQVTYTCATYYKMDGASNVTCINSRWTGRPTCRDTSCVNPPTVQNAYIVSRQMSKYPSGERVRYQCRSPYEMFGDEEVMCLNGNWTEPPQCKDSTGKCGPPPPIDNGDITSFPLSVYAPASSVEYQCQNLYQLEGNKRITCRNGQWSEPPKCLHPCVISREIMENYNIALRWTAKQKLYSRTGESVEFVCKRGYRLSSRSHTLRTTCWDGKLEYPTCAKRGGSGHHHHHH
B5: pCEP4-1NT7-12CT20 (other)
chain: EDCNELPPRRNTEILTGSWSDQTYPEGTQAIYKCRPGYRSLGNVIMVCRKGEWVALNPLRKCQKRPCGHPGDTPFGTFTLTGGNVFEYGVKAVYTCNEGYQLLGEINYRECDTDGWTNDIPICEVVKCLPVTAPENGKIVSSAMEPDREYHFGQAVRFVCNSGYKIEGDEEMHCSDDGFWSKEKPKCVEISCKSPDVINGSPISQKIIYKENERFQYKCNMGYEYSERGDAVCTESGWRPLPSCEEKSCDNPYIPNGDYSPLRIKHRTGDEITYQCRNGFYPATRGNTAKCTSTGWIPAPRCTLKPCDYPDIKHGGLYHENMRRPYFPVAVGKYYSYYCDEHFETPSGSYWDHIHCTQDGWSPAVPCLRKCYFPYLENGYNQNYGRKFVQGKSIDVACHPGYALPKAQTTVTCMENGWSPTPRCIRVKTGASGCGDIPELEHGWAQLSSPPYYYGDSVEFNCSESFTMIGHRSITCIHGVWTQLPQCVAIDKLKKCKSSNLIILEEHLKNKKEFDHNSNIRYRCRGKEGWIHTVCINGRWDPEVNCSMAQIQLCPPPPQIPNSHNMTTTLNYRDGEKVSVLCQENYLIQEGEEITCKDGRWQSIPLCVEKIPCSQPPQIEHGTINSSRSSQESYAHGTKLSYTCEGGFRISEENETTCYMGKWSSPPQCEGLPCKSPPEISHGVVAHMSDSYQYGEEVTYKCFEGFGIDGPAIAKCLGEKWSHPPSCIKTDCLSLPSFENAIPMGEKKDVYKAGEQVTYTCATYYKMDGASNVTCINSRWTGRPTCRDTSCVNPPTVQNAYIVSRQMSKYPSGERVRYQCRSPYEMFGDEEVMCLNGNWTEPPQCKDSTGKCGPPPPIDNGDITSFPLSVYAPASSVEYQCQNLYQLEGNKRITCRNGQWSEPPKCLHPCVISREIMENYNIALRWTAKQKLYSRTGESVEFVCKRGYRLSSRSHTLRTTCWDGKLEYPTCAKRGGSGHHHHHH
B6: pCEP4-1NT11-19CT20 (other)
chain: EDCNELPPRRNTEILTGSWSDQTYPEGTQAIYKCRPGYRSLGNVIMVCRKGEWVALNPLRKCQKRPCGHPGDTPFGTFTLTGGNVFEYGVKAVYTCNEGYQLLGEINYRECDTDGWTNDIPICEVVKCLPVTAPENGKIVSSAMEPDREYHFGQAVRFVCNSGYKIEGDEEMHCSDDGFWSKEKPKCVEISCKSPDVINGSPISQKIIYKENERFQYKCNMGYEYSERGDAVCTESGWRPLPSCEEKSCDNPYIPNGDYSPLRIKHRTGDEITYQCRNGFYPATRGNTAKCTSTGWIPAPRCTLKPCDYPDIKHGGLYHENMRRPYFPVAVGKYYSYYCDEHFETPSGSYWDHIHCTQDGWSPAVPCLRKCYFPYLENGYNQNHGRKFVQGKSIDVACHPGYALPKAQTTVTCMENGWSPTPRCIRVKTCSKSSIDIENGFISESQYTYALKEKAKYQCKLGYVTADGETSGSITCGKDGWSAQPTCIKSCDIPVFMNARTKNDFTWFKLNDTLDYECHDGYESNTGSTTGSIVCGYNGWSDLPICYERECELPKIDVHLVPDRKKDQYKVGEVLKFSCKPGFTIVGPNSVQCYHFGLSPDLPICKEQVQSCGPPPELLNGNVKEKTKEEYGHSEVVEYYCNPRFLMKGPNKIQCVDGEWTTLPVCIVEESTGASGCGPPPPIDNGDITSFPLSVYAPASSVEYQCQNLYQLEGNKRITCRNGQWSEPPKCLHPCVISREIMENYNIALRWTAKQKLYSRTGESVEFVCKRGYRLSSRSHTLRTTCWDGKLEYPTCAKRGGSGHHHHHH

biological target: C3 convertase complex (UniProt P01024 23-1663; P00751 260-764); assay: cell-based or functional assay
Sequence (P01024 23-1663, chain 1 of 2): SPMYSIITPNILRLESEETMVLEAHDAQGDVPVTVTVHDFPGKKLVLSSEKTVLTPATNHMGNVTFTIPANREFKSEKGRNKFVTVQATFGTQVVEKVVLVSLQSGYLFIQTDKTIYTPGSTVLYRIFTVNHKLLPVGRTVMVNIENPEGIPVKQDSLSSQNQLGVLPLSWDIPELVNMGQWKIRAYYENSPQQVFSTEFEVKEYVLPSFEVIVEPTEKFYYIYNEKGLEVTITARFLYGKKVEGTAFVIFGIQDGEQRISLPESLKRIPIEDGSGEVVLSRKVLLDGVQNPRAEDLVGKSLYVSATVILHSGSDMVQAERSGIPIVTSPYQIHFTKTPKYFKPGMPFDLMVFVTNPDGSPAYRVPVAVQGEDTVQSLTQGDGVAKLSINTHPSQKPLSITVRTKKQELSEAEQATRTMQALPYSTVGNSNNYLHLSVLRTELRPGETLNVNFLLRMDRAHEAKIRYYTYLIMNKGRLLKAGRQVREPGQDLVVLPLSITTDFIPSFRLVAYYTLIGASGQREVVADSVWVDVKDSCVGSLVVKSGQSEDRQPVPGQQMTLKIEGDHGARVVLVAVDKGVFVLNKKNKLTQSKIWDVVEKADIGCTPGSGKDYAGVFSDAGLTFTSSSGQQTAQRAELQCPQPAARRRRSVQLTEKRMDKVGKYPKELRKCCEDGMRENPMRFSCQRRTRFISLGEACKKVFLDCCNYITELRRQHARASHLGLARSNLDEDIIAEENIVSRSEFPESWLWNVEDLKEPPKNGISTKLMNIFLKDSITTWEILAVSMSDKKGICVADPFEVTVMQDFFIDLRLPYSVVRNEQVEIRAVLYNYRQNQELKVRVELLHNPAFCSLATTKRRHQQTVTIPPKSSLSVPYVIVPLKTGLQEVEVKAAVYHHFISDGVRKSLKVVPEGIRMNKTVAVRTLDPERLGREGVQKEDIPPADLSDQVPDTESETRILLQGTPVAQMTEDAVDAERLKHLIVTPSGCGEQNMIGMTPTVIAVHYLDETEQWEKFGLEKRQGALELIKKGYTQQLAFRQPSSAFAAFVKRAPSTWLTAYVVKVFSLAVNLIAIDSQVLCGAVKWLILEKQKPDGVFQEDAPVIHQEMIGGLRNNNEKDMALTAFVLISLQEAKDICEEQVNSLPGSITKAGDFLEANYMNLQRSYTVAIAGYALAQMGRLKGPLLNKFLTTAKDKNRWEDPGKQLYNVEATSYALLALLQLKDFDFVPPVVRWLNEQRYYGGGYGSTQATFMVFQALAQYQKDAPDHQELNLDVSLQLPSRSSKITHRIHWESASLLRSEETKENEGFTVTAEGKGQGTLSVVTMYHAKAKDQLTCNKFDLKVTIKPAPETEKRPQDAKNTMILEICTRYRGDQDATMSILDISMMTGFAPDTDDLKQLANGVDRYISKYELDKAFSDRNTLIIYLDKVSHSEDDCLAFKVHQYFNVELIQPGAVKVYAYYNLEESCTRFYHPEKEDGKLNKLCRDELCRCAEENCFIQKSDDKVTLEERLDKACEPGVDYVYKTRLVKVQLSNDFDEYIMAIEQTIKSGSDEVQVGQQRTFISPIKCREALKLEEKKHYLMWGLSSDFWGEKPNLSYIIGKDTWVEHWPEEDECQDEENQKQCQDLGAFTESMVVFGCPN
Sequence (P00751 260-764, chain 2 of 2): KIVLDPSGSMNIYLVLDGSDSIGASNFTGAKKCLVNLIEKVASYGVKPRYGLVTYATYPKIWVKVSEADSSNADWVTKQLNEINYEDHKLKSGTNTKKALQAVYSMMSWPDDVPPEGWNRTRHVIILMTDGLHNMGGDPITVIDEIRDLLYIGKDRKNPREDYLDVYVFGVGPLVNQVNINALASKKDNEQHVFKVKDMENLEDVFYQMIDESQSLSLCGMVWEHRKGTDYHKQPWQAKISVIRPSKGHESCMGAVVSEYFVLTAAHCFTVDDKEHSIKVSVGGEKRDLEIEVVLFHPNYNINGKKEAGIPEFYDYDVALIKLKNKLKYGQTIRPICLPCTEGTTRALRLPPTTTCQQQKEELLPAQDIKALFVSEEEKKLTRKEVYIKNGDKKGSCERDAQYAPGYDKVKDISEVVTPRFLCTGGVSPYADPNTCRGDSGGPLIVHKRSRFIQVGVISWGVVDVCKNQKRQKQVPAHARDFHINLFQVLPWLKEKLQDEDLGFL
Wherever C3 convertase activity % of the control is given: test concentration or dose not given here.

Point of comparison: B5, “C3 convertase activity % of the control” value 7 % of the control. Against it:
- B1 — lower, 6 % of the control
- B2 — higher, 107 % of the control
- B3 — lower, 6 % of the control
- B4 — the same, 7 % of the control
- B6 — lower, 5 % of the control

Point of comparison: B4, “C3 convertase activity IC50” value 1.93 µg/mL. Against it:
- B1 — 1.6-fold lower, 1.17 µg/mL
- B2 — 5.7-fold lower, 0.338 µg/mL
- B3 — within 1.5-fold, 1.99 µg/mL
- B5 — within 1.5-fold, 2.04 µg/mL
- B6 — within 1.5-fold, 1.78 µg/mL
